± gives the half width of the 95% confidence interval.
Tests used:
[1] = folding stability dG unfold from trypsin proteolysis; higher = more stable
Procedure, shortened: (§1)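 Designed mini-proteins with no cysteine and under 80 residues were kept only if AlphaFold2 dimer inter-PAE was above 15. In a PA-tagged cDNA display construct, they were digested with trypsin and chymotrypsin and then sequenced. K50 was inferred by Bayesian fitting of counts, and unfolding free energy was derived per protease or combined against a sequence-predicted unfolded-state K50 and a shared folded-state K50.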

[2] = folding stability dG unfold from chymotrypsin proteolysis; higher = more stable
Procedure, shortened: as §1

[3] = folding stability dG unfold (combined trypsin and chymotrypsin); higher = more stable
Procedure, shortened: as §1

## SAGGSAGGSAGIWIPIKDPKEAVDYIQEWFHKKGGYDINIEPTEVYPDGWVRVEINIEPKSAGGSAGGSAGG [r17_430_TrROS]
[1]
  folding stability dG unfold: 0.151 ± 0.1 kcal/mol
[2]
  folding stability dG unfold: 1.26 ± 0.18 kcal/mol
[3]
  folding stability dG unfold: 1.06 ± 0.26 kcal/mol

## SAGGSAGGSAGKAKIEVVEVDKNGKVRLKIKLENGEVKEIENADEITINGKKIKVEKIEPSAGGSAGGSAGG [r11_1017_TrROS_Hall]
[1]
  folding stability dG unfold: -0.311 ± 0.25 kcal/mol
[2]
  folding stability dG unfold: 1.52 ± 0.042 kcal/mol
[3]
  folding stability dG unfold: 1.11 ± 0.1 kcal/mol

## SAGGSAGGSAGKDIAKNIPPGAKILPIEPQPRGGGLYVKIEIEMPDPNGKKEKVTFTFPISAGGSAGGSAGG [r17_140_TrROS]
[1]
  folding stability dG unfold: -0.467 ± 0.14 kcal/mol
[2]
  folding stability dG unfold: 0.589 ± 0.26 kcal/mol
[3]
  folding stability dG unfold: 0.366 ± 0.26 kcal/mol

## SAGGSAGGSAGKEEIKIEITKVEPLEDGSYIAEVIATPKNGKKIPYTALIDPKTGKITIGSAGGSAGGSAGG [r11_31_TrMRF]
[1]
  folding stability dG unfold: 0.527 ± 0.11 kcal/mol
[2]
  folding stability dG unfold: 0.18 ± 0.14 kcal/mol
[3]
  folding stability dG unfold: 0.426 ± 0.087 kcal/mol

## SAGGSAGGSAGKIEIDPSKPALVRVRLVPENGIPREIVVEAGDLSKLLPENFKVLSIELGSAGGSAGGSAGG [r17_449_TrMRF]
[1]
  folding stability dG unfold: 0.295 ± 0.09 kcal/mol
[2]
  folding stability dG unfold: 0.397 ± 0.06 kcal/mol
[3]
  folding stability dG unfold: 0.407 ± 0.067 kcal/mol

## SAGGSAGGSAGKIELTNIQVWPGPNGRPWISMTISFPDGPVTIWIPFDNPDNIEIEIKPGSAGGSAGGSAGG [r17_64_TrROS]
[1]
  folding stability dG unfold: 2.63 ± 0.1 kcal/mol
[2]
  folding stability dG unfold: 3.02 ± 0.043 kcal/mol
[3]
  folding stability dG unfold: 2.82 ± 0.084 kcal/mol

## SAGGSAGGSAGKIEVEGDVEVTVFPPYGLATVTTPNGERYVLLVETRPDGSKRVLLFSAGSAGGSAGGSAGG [r11_331_TrMRF]
[1]
  folding stability dG unfold: 2.02 ± 0.039 kcal/mol
[2]
  folding stability dG unfold: 2.37 ± 0.026 kcal/mol
[3]
  folding stability dG unfold: 2.26 ± 0.045 kcal/mol

## SAGGSAGGSAGKIKIEKDKNGNYRVILKNGKVYEFKSIEEAKEELKKKFPNIKEIEIVKTSAGGSAGGSAGG [r11_806_TrROS_Hall]
[1]
  folding stability dG unfold: 3.21 ± 0.18 kcal/mol
[2]
  folding stability dG unfold: 4.29 ± 0.29 kcal/mol
[3]
  folding stability dG unfold: 3.87 ± 0.3 kcal/mol

## SAGGSAGGSAGKIRDPNGNPFQIKDVEVEPPGPGDPYISIEYPDNGEEFTLPPEDAEDLFSAGGSAGGSAGG [r17_517_TrROS]
[1]
  folding stability dG unfold: 0.95 ± 0.038 kcal/mol
[2]
  folding stability dG unfold: 2.13 ± 0.052 kcal/mol
[3]
  folding stability dG unfold: 1.64 ± 0.27 kcal/mol

## SAGGSAGGSAGKKEKVILLPVDAEPDETPEELAKKLKELNPDVEVLGFDPETGYVLVKVPSAGGSAGGSAGG [r11_465_TrMRF]
[1]
  folding stability dG unfold: 0.107 ± 0.053 kcal/mol
[2]
  folding stability dG unfold: -0.0143 ± 0.28 kcal/mol
[3]
  folding stability dG unfold: 0.149 ± 0.18 kcal/mol

## SAGGSAGGSAGKKELTFKDKNGKTITVTLEDGEIKEIKIEKPPKPKVVKTEKKYVPKEELSAGGSAGGSAGG [r17_287_TrROS_Hall]
[1]
  folding stability dG unfold: 0.0355 ± 0.16 kcal/mol
[2]
  folding stability dG unfold: 0.0761 ± 0.069 kcal/mol
[3]
  folding stability dG unfold: 0.135 ± 0.4 kcal/mol

## SAGGSAGGSAGKKITIPNLDVMRNPDDGMAFIQFGGQMIMIPPNVKIEQDPNGWMEIELPSAGGSAGGSAGG [r17_34_TrROS]
[1]
  folding stability dG unfold: 0.625 ± 0.064 kcal/mol
[2]
  folding stability dG unfold: -0.845 ± 0.69 kcal/mol
[3]
  folding stability dG unfold: 0.144 ± 0.12 kcal/mol

## SAGGSAGGSAGKKITLPNATITYDEETGEVTITVDGKTITLPPGAKIEVDENGNLTIYLPSAGGSAGGSAGG [r17_34_TrROS_Hall]
[1]
  folding stability dG unfold: 2.45 ± 0.1 kcal/mol
[2]
  folding stability dG unfold: 2.71 ± 0.075 kcal/mol
[3]
  folding stability dG unfold: 2.55 ± 0.12 kcal/mol

## SAGGSAGGSAGKKKILLKFKSAEEALEAIKKGKTIKLKNGKTVKVKKVTLDKNGYLLIELSAGGSAGGSAGG [r11_48_TrROS_Hall]
[1]
  folding stability dG unfold: 2.23 ± 0.034 kcal/mol
[2]
  folding stability dG unfold: 2.547 ± 0.021 kcal/mol
[3]
  folding stability dG unfold: 2.44 ± 0.06 kcal/mol

## SAGGSAGGSAGKKKKIFLIKIEVVKVKVEKRKKKDGKLEEKVEIEIKIEITEIPLPPELLSAGGSAGGSAGG [r11_24_TrROS_Hall]
[1]
  folding stability dG unfold: 2.81 ± 0.12 kcal/mol
[2]
  folding stability dG unfold: 3.02 ± 0.058 kcal/mol
[3]
  folding stability dG unfold: 2.94 ± 0.19 kcal/mol

## SAGGSAGGSAGKKKKKPKPIVLVIKVKTKEEAEKLAEKLKELGFKVEIVEKKDGYLVIKLSAGGSAGGSAGG [r17_323_TrROS_Hall]
[1]
  folding stability dG unfold: 2.11 ± 0.12 kcal/mol
[2]
  folding stability dG unfold: 3.8 ± 0.15 kcal/mol
[3]
  folding stability dG unfold: 3.39 ± 0.18 kcal/mol

## SAGGSAGGSAGKKKLRLTLPGAEVEYDAATNELTIRLKAPPPPPKTTTKVETKTVLLPGKSAGGSAGGSAGG [r11_149_TrROS_Hall]
[1]
  folding stability dG unfold: 0.792 ± 0.076 kcal/mol
[2]
  folding stability dG unfold: 1.2 ± 0.095 kcal/mol
[3]
  folding stability dG unfold: 0.989 ± 0.18 kcal/mol

## SAGGSAGGSAGKKTVVIKDAEIVEVEEENGYLKVRIKVTNPDGSEEEFTFTFKPGDVIELSAGGSAGGSAGG [r11_211_TrROS_Hall]
[1]
  folding stability dG unfold: 2.01 ± 0.07 kcal/mol
[2]
  folding stability dG unfold: 3.11 ± 0.059 kcal/mol
[3]
  folding stability dG unfold: 2.71 ± 0.17 kcal/mol

## SAGGSAGGSAGKKVLVLSEDEIAELLGLSKEEIENMSEEEKEKLALELAKKLGIDEVIITSAGGSAGGSAGG [r11_80_TrROS_Hall]
[1]
  folding stability dG unfold: 3.76 ± 0.11 kcal/mol
[2]
  folding stability dG unfold: 3.31 ± 0.094 kcal/mol
[3]
  folding stability dG unfold: 3.54 ± 0.055 kcal/mol

## SAGGSAGGSAGKLKIKKVKVVKTETFTLPNGYTIKVSYVEVEVDGKKYLFKSVEIYPKKESAGGSAGGSAGG [r11_129_TrROS_Hall]
[1]
  folding stability dG unfold: 2.02 ± 0.1 kcal/mol
[2]
  folding stability dG unfold: 3.09 ± 0.033 kcal/mol
[3]
  folding stability dG unfold: 2.85 ± 0.15 kcal/mol

Source: the supplement of paper PMC12764529
